Sequences and labels used below:
B1: Phospholipid scramblase 4 (Homo sapiens), Q9NRQ2 (parent)
chain: MSGVVPTAPEQPAGEMENQTKPPDPRPDAPPEYNSHFLPGPPGTAVPPPTGYPGGLPMGYYSPQQPSTFPLYQPVGGIHPVRYQPGKYPMPNQSVPITWMPGPTPMANCPPGLEYLVQLDNIHVLQHFEPLEMMTCFETNNRYDIKNNSDQMVYIVTEDTDDFTRNAYRTLRPFVLRVTDCMGREIMTMQRPFRCTCCCFCCPSARQELEVQCPPGVTIGFVAEHWNLCRAVYSIQNEKKENVMRVRGPCSTYGCGSDSVFEVKSLDGISNIGSIIRKWNGLLSAMADADHFDIHFPLDLDVKMKAMIFGACFLIDFMYFERSPPQRSR
B2: Notch homolog 2 N-terminal-like protein A (Homo sapiens), Q7Z3S9 (parent)
chain: MCVTYHNGTGYCKCPEGFLGEYCQHRDPCEKNRCQNGGTCVAQAMLGKATCRCASGFTGEDCQYSTSHPCFVSRPCLNGGTCHMLSRDTYECTCQVGFTGKECQWTDACLSHPCANGSTCTTVANQFSCKCLTGFTGQKCETDVNECDIPGHCQHGGTCLNLPGSYQCQCLQGFTGQYCDSLYVPCAPSPCVNGGTCRQTGDFTFECNCLPETVRRGTELWERDREVWNGKEHDEN
partner: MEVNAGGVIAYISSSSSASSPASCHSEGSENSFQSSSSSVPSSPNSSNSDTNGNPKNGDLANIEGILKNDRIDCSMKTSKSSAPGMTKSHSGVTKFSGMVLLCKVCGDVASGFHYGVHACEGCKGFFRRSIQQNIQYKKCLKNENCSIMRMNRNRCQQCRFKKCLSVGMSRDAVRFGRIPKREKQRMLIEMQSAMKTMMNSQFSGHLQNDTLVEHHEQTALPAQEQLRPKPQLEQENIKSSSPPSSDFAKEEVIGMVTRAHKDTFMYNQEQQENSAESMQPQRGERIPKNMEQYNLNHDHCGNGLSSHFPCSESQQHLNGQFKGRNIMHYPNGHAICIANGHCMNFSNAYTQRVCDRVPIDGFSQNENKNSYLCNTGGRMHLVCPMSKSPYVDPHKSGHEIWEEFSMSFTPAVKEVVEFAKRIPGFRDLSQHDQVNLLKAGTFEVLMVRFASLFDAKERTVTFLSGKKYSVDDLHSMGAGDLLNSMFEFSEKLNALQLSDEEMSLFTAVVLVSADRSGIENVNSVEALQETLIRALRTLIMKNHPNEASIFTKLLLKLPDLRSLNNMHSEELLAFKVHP
B3: Casein kinase II subunit alpha' (Homo sapiens), P19784 (parent)
chain: MPGPAAGSRARVYAEVNSLRSREYWDYEAHVPSWGNQDDYQLVRKLGRGKYSEVFEAINITNNERVVVKILKPVKKKKIKREVKILENLRGGTNIIKLIDTVKDPVSKTPALVFEYINNTDFKQLYQILTDFDIRFYMYELLKALDYCHSKGIMHRDVKPHNVMIDHQQKKLRLIDWGLAEFYHPAQEYNVRVASRYFKGPELLVDYQMYDYSLDMWSLGCMLASMIFRREPFFHGQDNYDQLVRIAKVLGTEELYGYLKKYHIDLDPHFNDILGQHSRKRWENFIHSENRHLVSPEALDLLDKLLRYDHQQRLTAKEAMEHPYFYPVVKEQSQPCADNAVLSSGLTAAR
B4: Phospholipase A and acyltransferase 4 (Homo sapiens), Q9UL19 (parent)
chain: MASPHQEPKPGDLIEIFRLGYEHWALYIGDGYVIHLAPPSEYPGAGSSSVFSVLSNSAEVKRERLEDVVGGCCYRVNNSLDHEYQPRPVEVIISSAKEMVGQKMKYSIVSRNCEHFVTQLRYGKSRCKQVEKAKVEVGVATALGILVVAGCSFAIRRYQKKATA
B5: Notch homolog 2 N-terminal-like protein A (Homo sapiens), Q7Z3S9 (parent)
chain: B2 chain
partner: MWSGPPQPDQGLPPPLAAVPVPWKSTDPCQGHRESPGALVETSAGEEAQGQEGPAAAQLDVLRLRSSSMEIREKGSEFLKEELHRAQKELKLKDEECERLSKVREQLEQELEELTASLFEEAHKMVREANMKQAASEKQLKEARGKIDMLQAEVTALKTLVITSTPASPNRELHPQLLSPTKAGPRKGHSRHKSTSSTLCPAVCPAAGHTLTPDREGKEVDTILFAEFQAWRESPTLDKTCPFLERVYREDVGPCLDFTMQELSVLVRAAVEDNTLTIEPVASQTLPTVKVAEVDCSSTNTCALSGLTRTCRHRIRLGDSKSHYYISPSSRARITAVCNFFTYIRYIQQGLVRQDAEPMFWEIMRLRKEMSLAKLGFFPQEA

In one assay the parent is B1. The conditions noted are these: with pls1_human PLSCR1, O15162.
Sequence of pls1_human PLSCR1, O15162 (O15162 whole entry): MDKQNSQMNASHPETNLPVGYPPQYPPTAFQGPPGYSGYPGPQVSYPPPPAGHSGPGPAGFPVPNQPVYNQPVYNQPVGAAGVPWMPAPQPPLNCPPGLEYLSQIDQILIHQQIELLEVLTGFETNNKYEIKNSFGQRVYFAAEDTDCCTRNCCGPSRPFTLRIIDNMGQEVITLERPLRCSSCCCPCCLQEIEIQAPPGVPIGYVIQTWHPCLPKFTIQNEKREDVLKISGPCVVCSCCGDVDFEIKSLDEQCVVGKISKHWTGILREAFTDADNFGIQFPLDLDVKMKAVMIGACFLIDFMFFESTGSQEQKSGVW
Regarding N34S, the “effect of a mutation on the interaction” value is recorded as “with no effect”.
On to A107S, for which the “effect of a mutation on the interaction” value is “with no effect”.

Variants of B1 are the subject of a further assay. The settings on record: with mtus2_human MTUS2, Q5JR59.
Sequence of mtus2_human MTUS2, Q5JR59 (Q5JR59 whole entry): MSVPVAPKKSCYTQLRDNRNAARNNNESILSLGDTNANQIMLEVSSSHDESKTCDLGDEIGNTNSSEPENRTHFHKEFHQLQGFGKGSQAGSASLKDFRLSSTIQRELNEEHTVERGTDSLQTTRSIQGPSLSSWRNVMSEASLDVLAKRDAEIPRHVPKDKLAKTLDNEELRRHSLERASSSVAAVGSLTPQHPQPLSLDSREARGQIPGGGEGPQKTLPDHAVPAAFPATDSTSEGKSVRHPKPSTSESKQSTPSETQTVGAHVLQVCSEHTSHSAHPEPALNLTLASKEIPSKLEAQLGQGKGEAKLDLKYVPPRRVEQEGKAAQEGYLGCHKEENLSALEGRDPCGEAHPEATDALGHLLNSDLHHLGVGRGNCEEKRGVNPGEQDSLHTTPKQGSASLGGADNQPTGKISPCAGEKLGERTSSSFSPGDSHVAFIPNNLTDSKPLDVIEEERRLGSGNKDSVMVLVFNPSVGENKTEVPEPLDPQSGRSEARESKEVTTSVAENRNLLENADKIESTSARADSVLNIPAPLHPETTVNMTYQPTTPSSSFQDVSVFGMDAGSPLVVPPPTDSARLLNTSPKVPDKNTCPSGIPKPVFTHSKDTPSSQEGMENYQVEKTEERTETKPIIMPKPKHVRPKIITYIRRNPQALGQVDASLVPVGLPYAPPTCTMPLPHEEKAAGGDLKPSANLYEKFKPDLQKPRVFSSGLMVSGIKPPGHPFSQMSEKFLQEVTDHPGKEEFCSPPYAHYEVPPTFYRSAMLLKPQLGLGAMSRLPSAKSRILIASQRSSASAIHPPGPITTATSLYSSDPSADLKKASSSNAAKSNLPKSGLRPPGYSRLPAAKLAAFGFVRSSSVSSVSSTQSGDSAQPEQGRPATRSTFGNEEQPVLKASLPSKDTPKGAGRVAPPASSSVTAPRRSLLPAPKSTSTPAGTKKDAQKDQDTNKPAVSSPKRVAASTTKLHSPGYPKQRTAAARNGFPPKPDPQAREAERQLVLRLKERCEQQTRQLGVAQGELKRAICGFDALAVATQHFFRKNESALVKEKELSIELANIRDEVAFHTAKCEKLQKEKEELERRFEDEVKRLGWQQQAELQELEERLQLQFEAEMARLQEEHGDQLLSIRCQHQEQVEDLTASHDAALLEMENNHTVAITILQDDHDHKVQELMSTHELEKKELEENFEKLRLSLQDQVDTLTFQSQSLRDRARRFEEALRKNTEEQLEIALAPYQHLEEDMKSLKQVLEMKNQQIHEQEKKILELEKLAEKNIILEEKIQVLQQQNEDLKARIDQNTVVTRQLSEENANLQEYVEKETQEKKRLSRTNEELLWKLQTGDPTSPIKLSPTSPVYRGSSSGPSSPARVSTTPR
Take N34S: the “effect of a mutation on the interaction” value was “with no effect”.
With A107S, the “effect of a mutation on the interaction” value is reported as “with no effect”.

Variants of B1 are the subject of a further assay. The settings on record: with nt2na_human NOTCH2NLA.
For N34S, the “effect of a mutation on the interaction” value is “with no effect”.
Still for that read-out and setting: with A107S the entry was “with no effect”.

The next assay covers variants of B2. The settings on record: with nr1d2_human NR1D2, Q14995.
Turning to R74Q, the “effect of a mutation on the interaction” value is reported as “with no effect”.
Same read-out and setting: under A115T stands “with no effect”.

The variants in another assay derive from B3. The settings on record: with tri41_human TRIM41, Q8WV44.
Consider N63T, for which the “effect of a mutation on the interaction” value is on record as “with no effect”.

The variants in a further assay derive from B4. The settings on record: with sgta_human SGTA.
For the variant T141M, the “effect of a mutation on the interaction” value was “disrupting interaction strength”.

In a further assay the parent is B5. The conditions noted are these: with RAB3IL1, Q8TBN0.
Turning to A115T, the “effect of a mutation on the interaction” value was “with no effect”.

(Values after IntAct's records for PubMed 31515488.)
